Target: T1, SWELL1 (LRRC8a, Leucine-Rich Repeat Containing Protein 8a), Q80WG5
T1 chain: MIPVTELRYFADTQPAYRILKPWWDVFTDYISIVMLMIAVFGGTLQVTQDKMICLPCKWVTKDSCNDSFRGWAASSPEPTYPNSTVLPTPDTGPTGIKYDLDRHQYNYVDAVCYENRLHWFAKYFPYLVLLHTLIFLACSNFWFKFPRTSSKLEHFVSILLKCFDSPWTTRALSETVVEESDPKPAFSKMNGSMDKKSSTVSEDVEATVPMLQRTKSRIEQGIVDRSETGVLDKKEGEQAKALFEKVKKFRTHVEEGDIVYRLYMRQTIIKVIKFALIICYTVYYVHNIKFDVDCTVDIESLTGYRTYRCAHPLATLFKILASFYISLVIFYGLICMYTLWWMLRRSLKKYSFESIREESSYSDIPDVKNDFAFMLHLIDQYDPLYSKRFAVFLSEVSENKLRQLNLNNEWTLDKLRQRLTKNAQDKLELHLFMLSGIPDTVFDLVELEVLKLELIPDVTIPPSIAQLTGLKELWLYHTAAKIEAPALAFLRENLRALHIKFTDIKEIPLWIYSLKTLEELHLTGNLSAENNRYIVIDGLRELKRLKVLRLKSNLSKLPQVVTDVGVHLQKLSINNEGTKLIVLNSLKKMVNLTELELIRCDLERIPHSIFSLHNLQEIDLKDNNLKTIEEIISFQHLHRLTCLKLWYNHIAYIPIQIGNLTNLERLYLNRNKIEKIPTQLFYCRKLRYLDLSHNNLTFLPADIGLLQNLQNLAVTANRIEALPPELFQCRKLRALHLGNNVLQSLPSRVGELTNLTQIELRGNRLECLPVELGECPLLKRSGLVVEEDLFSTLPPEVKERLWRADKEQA
Experiment: cryo-EM structure
Conditions: remark: other sources report otherwise

B1: SWELL1 (LRRC8a, Leucine-Rich Repeat Containing Protein 8a), Q80WG5 1-810 (natural protein)
chain: T1 chain
- stoichiometry N: 6

Source: article doi:10.1101/2021.02.28.432901
